Settings in all cases: tags: GST (pGEX4T-1); label: 32P 5' end (EMSA); annealed oligos with 3-nt overhangs, ligated as 4mer
(In general: Mobility shift assays separate free from complexed probe on a gel.)

For data set [1], the target named is T1, ABP9 (Zea mays).
T1 chain: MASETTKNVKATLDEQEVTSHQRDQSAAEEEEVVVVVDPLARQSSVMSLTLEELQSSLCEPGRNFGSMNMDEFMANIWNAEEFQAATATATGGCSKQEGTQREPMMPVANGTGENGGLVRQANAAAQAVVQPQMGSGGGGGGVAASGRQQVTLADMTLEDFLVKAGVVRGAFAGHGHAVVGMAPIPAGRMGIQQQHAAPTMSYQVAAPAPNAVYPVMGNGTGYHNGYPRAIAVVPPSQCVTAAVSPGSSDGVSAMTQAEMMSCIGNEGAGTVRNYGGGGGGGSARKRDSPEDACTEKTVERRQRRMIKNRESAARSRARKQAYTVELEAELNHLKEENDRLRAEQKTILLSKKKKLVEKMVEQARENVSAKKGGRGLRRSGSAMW
Kind of data set: EMSA; no retarded band. The method, then: (§1) Add 4 μl of 5×binding buffer (125 mM HEPES-KOH pH7.6, 50% glycerol, 250 mM KC1). Add 4 μg (9 μl) of each of the proteins ABP2, ABP4, ABP9 and GST. Add 1 μl of 1M DTT, 1 μl of probe of the above-labeled ABRE (or InABRE) and 4 μl of H₂O. Incubate on ice for 30 minutes. Add 3 μl of sample buffer (0.025% bromophenol blue in sterile H₂O) and perform polyacrylamide gel eletrophoresis analysis.
(§2) Set up the gel mixture of 9 ml of 30% acrylamide, 5 ml of 10×eletrophoresis buffer (142.7 g/L glycin, 3.92 g/L EDTA, 30.28 g/L Tris), 2.5 ml of 50% glycerol, 33 ml of deionized water, 400 μl of 10% APS, and 25 μl of TEMED. After completion of polymerization, perfom gel eletrophoresis with 1×eletrophoresis buffer, including pre-running for 10 minutes (300V), loading the samples and eletrophoresis for 1 hour (300V). Stick the gel with filter paper to peel off. Seal the peeled gel with Saran wrap and expose to X ray film for 1 hour. Wash the film, develop for 2 minutes and fix for 5 minutes. […] This means that the products of the genes ABP2, ABP4, and ABP9 also have the ABRE binding specificity in vitro.

The target of data set [2] is T2, ABP2 (Zea mays).
T2 chain: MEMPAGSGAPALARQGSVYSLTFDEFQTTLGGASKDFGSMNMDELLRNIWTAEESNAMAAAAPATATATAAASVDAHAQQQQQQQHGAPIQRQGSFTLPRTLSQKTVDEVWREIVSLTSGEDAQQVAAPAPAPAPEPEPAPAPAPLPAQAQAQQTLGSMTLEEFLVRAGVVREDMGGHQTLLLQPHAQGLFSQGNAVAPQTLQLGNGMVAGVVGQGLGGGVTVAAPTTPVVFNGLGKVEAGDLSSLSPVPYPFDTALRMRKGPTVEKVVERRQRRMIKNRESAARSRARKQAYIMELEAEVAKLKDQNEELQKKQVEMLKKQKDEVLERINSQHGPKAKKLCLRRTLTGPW
Kind of data set: EMSA; no retarded band. The method, then: as §1, §2

Data set [3] has as its target T3, ABP4 (Zea mays).
T3 chain: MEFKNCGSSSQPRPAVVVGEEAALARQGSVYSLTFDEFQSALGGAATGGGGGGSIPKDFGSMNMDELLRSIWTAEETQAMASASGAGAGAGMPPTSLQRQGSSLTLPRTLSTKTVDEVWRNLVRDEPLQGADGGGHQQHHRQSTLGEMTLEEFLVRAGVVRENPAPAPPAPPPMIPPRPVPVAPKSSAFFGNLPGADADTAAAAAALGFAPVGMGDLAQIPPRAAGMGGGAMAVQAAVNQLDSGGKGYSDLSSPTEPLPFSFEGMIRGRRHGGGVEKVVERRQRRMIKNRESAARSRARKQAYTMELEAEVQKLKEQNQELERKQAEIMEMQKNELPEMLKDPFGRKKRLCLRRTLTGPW
In words: EMSA; no retarded band. On the procedure: as §1, §2

Data set [4] deals with T1, ABP9. Kind of data set: EMSA; 25 mM HEPES-KOH pH 7.6, 50 mM KCl, 10% glycerol, DTT, on ice. The method, then:
as §1, §2

For data set [5], the target named is T2, ABP2. The data set is described as above. On the procedure:
as §1, §2

Data set [6] has as its target T3, ABP4. Described as above. On the procedure: as §1, §2

B1: mABRE (dsDNA)
DNA 1: GAAGTAACATGTTCGGTGG
DNA 2: TCCCACCGAACATGTTACT
As to B1, the binding result in the data set with ABP9 [1], in the data set with ABP2 [2] and with ABP4 [3] was “no binding” each time.

B2: ABRE (dsDNA)
DNA 1: GAAGTCCACGTGGAGGTGG
DNA 2: TCCCACCTCCACGTGGACT
Take B2: the binding result with ABP9 [4], with ABP2 [5] and with ABP4 [6] was “binds” in each case.
